The assay deals with H-2Kb MHC class 1 molecule on RMA-S cells (mouse (endogenous in RMA-S)). Briefly: peptide-induced MHC stabilisation assay.

The substance “OVA peptide (SIINFEKL) synthesized with PCR-IVTT reaction” gave a H-2Kb-positive cells of 55.3%.

The values above are taken from article doi:10.1101/2024.05.07.593072.
